Experimental data: the supplement of paper PMC12042874
± gives the uncertainty stated by the source.

Assay: amyloid nucleation score (Sup35N fusion, yeast selection) (log enrichment); library NNK1; higher = more nucleation; inactive = no reads after selection
In short: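 Plasmid inserts were Illumina-sequenced at input and output from psi-negative yeast expressing Sup35N fused to peptides of 20 random codons. The yeast were induced with 100 μM copper sulfate for 24 hours and grown 7 days at 30°C on medium lacking adenine and uracil, and sequences with under 100 input reads were excluded. Nucleation score is the DiMSum log enrichment of output over input reads, centred on the mode score of non-aggregating sequences.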

Row | Substance | amyloid nucleation score
1 | LCVRAIVRSCNSWKKYSFPR | 0.031 ± 1
2 | IVGST | -0.894 ± 0.47
3 | RVGKYDLKSRDLGVGVDGVG | 0.586 ± 0.29
4 | CGVMDGYLTAK | -0.619 ± 0.32
5 | QILCLTVVSVFQGYSVMIPF | 0.022 ± 0.32
6 | EKVGLTCQRGIVLVDNIFMQ | 6.986 ± 0.045
7 | SLLTYQ | 0.757 ± 0.27
8 | TLRLSFCRYMAFWHCNRSMA | -1.14 ± 1.1
9 | MWSGLIDYMEYLLGWLCT | 0.528 ± 1.2
10 | SNAIVTFIVGVAAPGTYYS | 6.47 ± 0.062
11 | EIRLNYMGFGPKCT | 0.735 ± 0.27
12 | NLPVGLEAM | -0.327 ± 0.62
13 | YSYGCCSMLNVVS | 1.93 ± 0.2
14 | SANRTHNWY | -0.451 ± 0.44
15 | DDLPPRRNASFQWNKGFFRV | -0.448 ± 1.7
16 | KQNNGFGWEYEAGGLHRKGA | -0.989 ± 2.7
17 | VIMLVNDAFVGI | -0.543 ± 0.26
18 | KSFYGNFRGFFNALNIYHSS | 1.83 ± 0.28
19 | WVLVIVLLRRWHHRDGAGQS | 0.57 ± 0.47
20 | KLHNILLWNCLVFLCVMYVW | inactive
21 | RTEVIKMNLG | -0.085 ± 0.42
22 | MYGCFSGGSVFSSYAALFVI | -0.766 ± 0.41
23 | CRRIHFLVTMVTGSPLCLSG | -0.627 ± 0.32
24 | LNYFLLLMFQCDGRILFRFY | 0.652 ± 0.84
25 | LNLWPIDANVGWLWKRWRWR | -0.538 ± 2.1
26 | WFCVHKTVSLDMASVDRKGQ | 4.8 ± 0.088

Row | Substance | amyloid nucleation score
27 | INTSR | 0.038 ± 0.23
28 | LAMSSQSHYCKRRSVCRKSV | 0.786 ± 0.81
29 | RMLLENVSVKRR | 0.678 ± 0.66
30 | RGSMSEWNILYVYASIYKGD | 1.6 ± 0.42
31 | WLGLGVRALRSENVCCRAFH | 1.1 ± 0.49
32 | TITIVVRYVETRCGNIRDVE | 0.794 ± 0.45
33 | LLYRMKVFADVGGDVLKSEG | inactive
34 | SLEDEEQLYLANSIREGLAV | 0.76 ± 0.51
35 | FQLGAHKLRAWLDRGYPEFA | -0.202 ± 0.64
36 | SGLFMWYGSQTPYNIMMKQK | inactive
37 | AILFLFFN | 2.66 ± 0.14
38 | ACDVNSCVHCMSTVKFFPRP | 4.2 ± 0.11
39 | PLNSRTCGPFARSSIWDWDT | 0.937 ± 0.9
40 | VELSYCMQRMSARIQCGRKP | 2.09 ± 0.43
41 | AMHNSSDGCRFDTYSVCVYW | 2.68 ± 0.21
42 | NWILSLAGFYRSSKVSSCTT | 0.41 ± 0.67
43 | SRLVCLVNYVGGGYIETITL | 4.02 ± 0.1
44 | SGRPGTAQLRVVLGHNQKCA | 1.12 ± 0.97
45 | DGDVE | -0.494 ± 0.74
46 | ILWLVRSGVSYQQGGDSTPV | 0.919 ± 0.28
47 | LMCWFAGEDPVFVYTVFIVT | -1.49 ± 1.4
48 | VFGSKFGLKLITDFINILLR | inactive
49 | YTWQYAYLCQVMTSFYSGSI | -0.269 ± 0.47
50 | YTRVLILNENATAIIWSE | 1.87 ± 0.4
51 | LADDHE | 0.229 ± 0.93
52 | FQGRLVFVDCDIRLVALKGS | 3.88 ± 0.067

Row | Substance | amyloid nucleation score
53 | MSWNYCNDM | -0.045 ± 0.22
54 | RCQNRH | -0.221 ± 0.46
55 | NLGFTRSPHAETSLFTH | 0.235 ± 0.47
56 | YFDWTRVGYNYGSILLPVEA | 0.135 ± 0.51
57 | RNYFCIMYRYRCCKV | 4.23 ± 0.085
58 | RNSRAMIFEMHVVGLWWQSC | -0.538 ± 2.1
59 | GYSYFPNYHVFRVHE | 1.27 ± 0.54
60 | KIRLQVNSFMFVTPWAHFMV | 4.55 ± 0.052
61 | MVAEIYQAFWVC | -0.349 ± 1.2
62 | YTMFLPFRLR | 0.376 ± 0.8
63 | LSTTWDFESMGVRVSREYPG | 0.351 ± 0.58
64 | TYFFKLNP | -1.07 ± 1.4
65 | VEFGSHVFYLKGRSDKAKYL | -0.283 ± 0.45
66 | TYSKSVCWAHHHSYTGVCLT | 0.127 ± 0.52
67 | SKCAVQCLVG | 0.986 ± 0.2
68 | WMKVLVPFRMEAASGSLFCS | -1.22 ± 1.3
69 | YYVVVFVANAVFPQYPDPRN | 7.21 ± 0.055
70 | IGQGFNCIR | -0.083 ± 1.4
71 | PSTPQSHKMMGYRFRDRTGW | -1.03 ± 2.7
72 | CCFMYAQIDLLNFSMDVLAR | 0.198 ± 0.29
73 | RSSSYNSLIRKISDKLVGAA | 1.09 ± 0.56
74 | EGYPTMSMNSRS | 0.716 ± 0.44
75 | RVGQSCCDFT | -0.047 ± 1.1
76 | VRISVCNYWFMVVGMAF | 0.251 ± 0.31
77 | FDIIK | -0.358 ± 1.4
78 | RTDLGVRIKF | 0.77 ± 0.55

Row | Substance | amyloid nucleation score
79 | YCPSC | 0.859 ± 0.42
80 | NLEWGLYISTANCPRNYDKA | inactive
81 | CASMMPDSVSVRTKSNVT | -1.02 ± 1.3
82 | CGWNFTVIHFSLDSVSHLLY | -0.568 ± 0.66
83 | SCGLTCDAEYGRGFPGLCMM | 0.001 ± 1.1
84 | LTSSCQSSLKRKWGNIWHIR | -0.641 ± 1.1
85 | NCDDIYKYMVIVQGSQLFI | -0.211 ± 0.32
86 | CLQDMFFTNELSFAGTLLIS | 0.049 ± 0.34
87 | MRPPGNPGWWVRRKARWDPG | -0.506 ± 1
88 | DFLRIRVAKKSLDMGFIV | -0.251 ± 0.36
89 | RLLPGFERGVLYYWA | 0.568 ± 0.43
90 | CAQRPAVRSF | -0.075 ± 0.98
91 | LCKVPLNT | 1.36 ± 0.9
92 | TSGSRVRRRWGMLVCRNRSR | -1.25 ± 2.4
93 | FWPNRLR | 0.169 ± 0.56
94 | VGRNQNKTDEG | 0.564 ± 0.95
95 | PGLDFLGLLHQLISVFAIRL | 0.111 ± 0.48
96 | VFFSKI | 1.08 ± 0.53
97 | AAAFYWLN | -1.2 ± 1.3
98 | FLSRGSVWVVGSTFECHYEW | 0.205 ± 0.56
99 | ASQRSQNCCIVESIDEVLFS | 0.85 ± 0.41
100 | MWPRIPLRDPVVWEHRYCGI | -0.391 ± 0.65
101 | CFYAA | -0.557 ± 0.56
